Experimental data as given in patent publication US20150140169.

Target: T1, alpha-s1 casein from Bos taurus
T1 chain: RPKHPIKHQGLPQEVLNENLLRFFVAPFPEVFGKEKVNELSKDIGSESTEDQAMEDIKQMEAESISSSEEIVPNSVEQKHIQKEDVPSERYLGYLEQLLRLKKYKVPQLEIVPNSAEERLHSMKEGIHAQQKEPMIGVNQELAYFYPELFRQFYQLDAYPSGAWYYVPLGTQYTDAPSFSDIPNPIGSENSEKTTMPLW

Row | Protein | (αSN1-1)/(αSN1), 6 hours, 11° C. (average) | (αSN1-1)/(αSN1), 24 hours, 11° C. (average) | hydrolysis of the first cut in alpha-s1-casein | small, 6 hours, 11° C. [Volume] | small, 16 hours, 30° C. [Volume] | small, 24 hours, 11° C. [Volume] | αs1-I CN, 6 hours, 11° C. [Volume] | αs1-I CN, 6 hours, 11° C. (average) [Volume] | αs1-I CN, 16 hours, 30° C. [Volume] | αs1-I CN, 24 hours, 11° C. [Volume] | αs1-I CN, 24 hours, 11° C. (average) [Volume] | αs1-I CN/αs1 CN, 6 hours, 11° C. | αs1-I CN/αs1 CN, 24 hours, 11° C. | αs1 CN, 6 hours, 11° C. [Volume] | αs1 CN, 6 hours, 11° C. (average) [Volume] | αs1 CN, 16 hours, 30° C. [Volume] | αs1 CN, 24 hours, 11° C. [Volume] | αs1 CN, 24 hours, 11° C. (average) [Volume] | (αSN1-1)/(αSN1), 6 hours, 11° C. | (αSN1-1)/(αSN1), 24 hours, 11° C.
1 | Chymax M (recombinant camel chymosin) (protein) GKVAREPLTSYLDSQYFGKIYIGTPPQEFTVVFDTGSSDLWVPSIYCKSNVCKNHHRFDPRKSSTFRNLGKPLSIHYGTGSMEGFLGYDTVTVSNIVDPNQTVGLSTEQPGEVFTYSEFDGILGLAYPSLASEYSVPVFDNMMDRHLVARDLFSVYMDRNGQGSMLTLGAIDPSYYTGSLHWVPVTLQQYWQFTVDSVTINGVAVACVGGCQAILDTGTSVLFGPSSDILKIQMAIGATENRYGEFDVNCGNLRSMPTVVFEINGRDYPLSPSAYTSKDQGFCTSGFQGDNNSELWILGDVFIREYYSVFDRANNRVGLAKAI | 0.5 | 1.2 | shows a slow first cut in alpha-s1 casein | 0 | 9e+06 | 1.1e+07 | 1.28e+07 | 1.81e+07 | 4.3e+06 | 1.62e+07 | 2.13e+07 | 0.5 | 1.3 | 2.73e+07 | 3.52e+07 | 0 | 1.25e+07 | 1.73e+07 |  | 
2 | camel chymosin variant #163 (L295T) (protein) GKVAREPLTSYLDSQYFGKIYIGTPPQEFTVVFDTGSSDLWVPSIYCKSNVCKNHHRFDPRKSSTFRNLGKPLSIHYGTGSMEGFLGYDTVTVSNIVDPNQTVGLSTEQPGEVFTYSEFDGILGLAYPSLASEYSVPVFDNMMDRHLVARDLFSVYMDRNGQGSMLTLGAIDPSYYTGSLHWVPVTLQQYWQFTVDSVTINGVAVACVGGCQAILDTGTSVLFGPSSDILKIQMAIGATENRYGEFDVNCGNLRSMPTVVFEINGRDYPLSPSAYTSKDQGFCTSGFQGDNNSETWILGDVFIREYYSVFDRANNRVGLAKAI |  |  |  |  |  |  | 1.48e+07 |  |  | 1.79e+07 |  |  |  | 2.79e+07 |  |  | 1.14e+07 |  | 0.5 | 1.6
3 | camel chymosin variant #161 (L295M) (protein) GKVAREPLTSYLDSQYFGKIYIGTPPQEFTVVFDTGSSDLWVPSIYCKSNVCKNHHRFDPRKSSTFRNLGKPLSIHYGTGSMEGFLGYDTVTVSNIVDPNQTVGLSTEQPGEVFTYSEFDGILGLAYPSLASEYSVPVFDNMMDRHLVARDLFSVYMDRNGQGSMLTLGAIDPSYYTGSLHWVPVTLQQYWQFTVDSVTINGVAVACVGGCQAILDTGTSVLFGPSSDILKIQMAIGATENRYGEFDVNCGNLRSMPTVVFEINGRDYPLSPSAYTSKDQGFCTSGFQGDNNSEMWILGDVFIREYYSVFDRANNRVGLAKAI |  |  |  |  |  |  | 1.96e+07 |  |  | 2.23e+07 |  |  |  | 3.15e+07 |  |  | 1.1e+07 |  | 0.6 | 2
4 | camel chymosin variant #159 (L295I) (protein) GKVAREPLTSYLDSQYFGKIYIGTPPQEFTVVFDTGSSDLWVPSIYCKSNVCKNHHRFDPRKSSTFRNLGKPLSIHYGTGSMEGFLGYDTVTVSNIVDPNQTVGLSTEQPGEVFTYSEFDGILGLAYPSLASEYSVPVFDNMMDRHLVARDLFSVYMDRNGQGSMLTLGAIDPSYYTGSLHWVPVTLQQYWQFTVDSVTINGVAVACVGGCQAILDTGTSVLFGPSSDILKIQMAIGATENRYGEFDVNCGNLRSMPTVVFEINGRDYPLSPSAYTSKDQGFCTSGFQGDNNSEIWILGDVFIREYYSVFDRANNRVGLAKAI |  |  |  |  |  |  | 1.7e+07 |  |  | 1.97e+07 |  |  |  | 2.95e+07 |  |  | 1.11e+07 |  | 0.6 | 1.8
5 | camel chymosin variant #157 (D290T) (protein) GKVAREPLTSYLDSQYFGKIYIGTPPQEFTVVFDTGSSDLWVPSIYCKSNVCKNHHRFDPRKSSTFRNLGKPLSIHYGTGSMEGFLGYDTVTVSNIVDPNQTVGLSTEQPGEVFTYSEFDGILGLAYPSLASEYSVPVFDNMMDRHLVARDLFSVYMDRNGQGSMLTLGAIDPSYYTGSLHWVPVTLQQYWQFTVDSVTINGVAVACVGGCQAILDTGTSVLFGPSSDILKIQMAIGATENRYGEFDVNCGNLRSMPTVVFEINGRDYPLSPSAYTSKDQGFCTSGFQGTNNSELWILGDVFIREYYSVFDRANNRVGLAKAI |  |  |  |  |  |  | 1.76e+07 |  |  | 2.38e+07 |  |  |  | 3.07e+07 |  |  | 1.36e+07 |  | 0.6 | 1.7
6 | camel chymosin variant #160 (L295K) (protein) GKVAREPLTSYLDSQYFGKIYIGTPPQEFTVVFDTGSSDLWVPSIYCKSNVCKNHHRFDPRKSSTFRNLGKPLSIHYGTGSMEGFLGYDTVTVSNIVDPNQTVGLSTEQPGEVFTYSEFDGILGLAYPSLASEYSVPVFDNMMDRHLVARDLFSVYMDRNGQGSMLTLGAIDPSYYTGSLHWVPVTLQQYWQFTVDSVTINGVAVACVGGCQAILDTGTSVLFGPSSDILKIQMAIGATENRYGEFDVNCGNLRSMPTVVFEINGRDYPLSPSAYTSKDQGFCTSGFQGDNNSEKWILGDVFIREYYSVFDRANNRVGLAKAI |  |  |  |  |  |  | 1.81e+07 |  |  | 2.49e+07 |  |  |  | 2.95e+07 |  |  | 1.2e+07 |  | 0.6 | 2.1
7 | camel chymosin variant #162 (L295R) (protein) GKVAREPLTSYLDSQYFGKIYIGTPPQEFTVVFDTGSSDLWVPSIYCKSNVCKNHHRFDPRKSSTFRNLGKPLSIHYGTGSMEGFLGYDTVTVSNIVDPNQTVGLSTEQPGEVFTYSEFDGILGLAYPSLASEYSVPVFDNMMDRHLVARDLFSVYMDRNGQGSMLTLGAIDPSYYTGSLHWVPVTLQQYWQFTVDSVTINGVAVACVGGCQAILDTGTSVLFGPSSDILKIQMAIGATENRYGEFDVNCGNLRSMPTVVFEINGRDYPLSPSAYTSKDQGFCTSGFQGDNNSERWILGDVFIREYYSVFDRANNRVGLAKAI |  |  |  |  |  |  | 1.65e+07 |  |  | 3.1e+07 |  |  |  | 3.09e+07 |  |  | 1.67e+07 |  | 0.5 | 1.9
8 | camel chymosin variant #165 (L295W) (protein) GKVAREPLTSYLDSQYFGKIYIGTPPQEFTVVFDTGSSDLWVPSIYCKSNVCKNHHRFDPRKSSTFRNLGKPLSIHYGTGSMEGFLGYDTVTVSNIVDPNQTVGLSTEQPGEVFTYSEFDGILGLAYPSLASEYSVPVFDNMMDRHLVARDLFSVYMDRNGQGSMLTLGAIDPSYYTGSLHWVPVTLQQYWQFTVDSVTINGVAVACVGGCQAILDTGTSVLFGPSSDILKIQMAIGATENRYGEFDVNCGNLRSMPTVVFEINGRDYPLSPSAYTSKDQGFCTSGFQGDNNSEWWILGDVFIREYYSVFDRANNRVGLAKAI |  |  |  |  |  |  | 3.09e+07 |  |  | 3.78e+07 |  |  |  | 2.12e+07 |  |  | 5.7e+06 |  | 1.5 | 6.7
9 | camel chymosin variant #164 (L295Y) (protein) GKVAREPLTSYLDSQYFGKIYIGTPPQEFTVVFDTGSSDLWVPSIYCKSNVCKNHHRFDPRKSSTFRNLGKPLSIHYGTGSMEGFLGYDTVTVSNIVDPNQTVGLSTEQPGEVFTYSEFDGILGLAYPSLASEYSVPVFDNMMDRHLVARDLFSVYMDRNGQGSMLTLGAIDPSYYTGSLHWVPVTLQQYWQFTVDSVTINGVAVACVGGCQAILDTGTSVLFGPSSDILKIQMAIGATENRYGEFDVNCGNLRSMPTVVFEINGRDYPLSPSAYTSKDQGFCTSGFQGDNNSEYWILGDVFIREYYSVFDRANNRVGLAKAI |  |  |  |  |  |  | 1.59e+07 |  |  | 2.66e+07 |  |  |  | 2.49e+07 |  |  | 1.49e+07 |  | 0.6 | 1.8
10 | camel chymosin variant #158 (L295F) (protein) GKVAREPLTSYLDSQYFGKIYIGTPPQEFTVVFDTGSSDLWVPSIYCKSNVCKNHHRFDPRKSSTFRNLGKPLSIHYGTGSMEGFLGYDTVTVSNIVDPNQTVGLSTEQPGEVFTYSEFDGILGLAYPSLASEYSVPVFDNMMDRHLVARDLFSVYMDRNGQGSMLTLGAIDPSYYTGSLHWVPVTLQQYWQFTVDSVTINGVAVACVGGCQAILDTGTSVLFGPSSDILKIQMAIGATENRYGEFDVNCGNLRSMPTVVFEINGRDYPLSPSAYTSKDQGFCTSGFQGDNNSEFWILGDVFIREYYSVFDRANNRVGLAKAI |  |  |  |  |  |  | 1.95e+07 |  |  | 2.22e+07 |  |  |  | 2.63e+07 |  |  | 9.8e+06 |  | 0.7 | 2.3
11 | camel chymosin variant #156 (D290S) (protein) GKVAREPLTSYLDSQYFGKIYIGTPPQEFTVVFDTGSSDLWVPSIYCKSNVCKNHHRFDPRKSSTFRNLGKPLSIHYGTGSMEGFLGYDTVTVSNIVDPNQTVGLSTEQPGEVFTYSEFDGILGLAYPSLASEYSVPVFDNMMDRHLVARDLFSVYMDRNGQGSMLTLGAIDPSYYTGSLHWVPVTLQQYWQFTVDSVTINGVAVACVGGCQAILDTGTSVLFGPSSDILKIQMAIGATENRYGEFDVNCGNLRSMPTVVFEINGRDYPLSPSAYTSKDQGFCTSGFQGSNNSELWILGDVFIREYYSVFDRANNRVGLAKAI |  |  |  |  |  |  | 1.7e+07 |  |  | 3.16e+07 |  |  |  | 3.15e+07 |  |  | 1.71e+07 |  | 0.5 | 1.9
12 | bovine chymosin B variant #6 (K221M) (protein) GEVASVPLTNYLDSQYFGKIYLGTPPQEFTVLFDTGSSDFWVPSIYCKSNACKNHQRFDPRKSSTFQNLGKPLSIHYGTGSMQGILGYDTVTVSNIVDIQQTVGLSTQEPGDVFTYAEFDGILGMAYPSLASEYSIPVFDNMMNRHLVAQDLFSVYMDRNGQESMLTLGAIDPSYYTGSLHWVPVTVQQYWQFTVDSVTISGVVVACEGGCQAILDTGTSMLVGPSSDILNIQQAIGATQNQYGEFDIDCDNLSYMPTVVFEINGKMYPLTPSAYTSQDQGFCTSGFQSENHSQKWILGDVFIREYYSVFDRANNLVGLAKAI |  |  | show a clear hydrolysis of the first cut in alpha-s1-casein, leading to a rapid formation of fragment alpha-s1-I casein | 0 |  | 4.3e+06 | 1.89e+07 |  |  | 2.22e+07 |  | 1 | 4.3 | 1.81e+07 |  |  | 5.1e+06 |  |  | 
